Test results reported in PMC11809415, “Structure of the F-tractin–F-actin complex” (The Journal of Cell Biology, 2025).

B1: F-tractinopt–mCherry fusion [rat] / F-actin (rabbit skeletal muscle α-actin filaments) [rabbit] (parent)
chain 1: APRRSVGELRLLFEARAASAA
chain 2: not shown

Variants of: B1
Assay: high-speed cosedimentation assay (SDS-PAGE densitometry)
Conditions: with F-actin (rabbit skeletal muscle α-actin filaments) [rabbit]; 2 µM F-tractin-mCherry; high-speed sedimentation, 120,000 g; actin 0-40 µM

Row | Kd | Variant
1 | > 100 µM | chain 1 F13A
